In patent US20210156867A1 one finds Kd data, which are given here for one molecule.

By Kd is commonly meant the equilibrium constant for the complex coming apart.

The assay addresses mouse recombinant His-calmodulin, calcium-bound (mouse), P0DP26.

B1: Mastoparan, P01514 1-14 (peptide)
peptide: INLKALAALAKKIL
modifications: not checked
B1: the Kd worked out at 1.2 nM.
